Our source for the Kd, koff and kon values is US20080118498A1 (Eli Lilly, published 2008).

Broadly, the Kd is the concentration at which binding is half-saturated. The term koff denotes a measure of how fast the partners let go of each other. A higher koff goes with a short-lived complex. A word on the kon: it is the second-order rate constant of association. A higher kon goes with fast association.

Changes are numbered by the printed parent chain.

The target in experiment [1] is T1, C8 acylated human ghrelin (1-28) (human, n-octanoyl group on the serine at position three (Ser3)).
T1 construct: 28-residue peptide hormone; In the first KinExA experiment a biotinylated form was on the beads and the unlabelled peptide was titrated in solution; also called Human C8 ghrelin; human C8 acylated ghrelin (1-28)
T1 sequence (peptide, as listed by the source): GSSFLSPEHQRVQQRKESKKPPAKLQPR
In words: KinExA solution equilibrium; constant Fab, ghrelin titrated, free Fab captured on biotin-C8-ghrelin streptavidin beads. On the procedure: The KinExA 3000 instrument, manufactured by Sapidyne, is used to measure binding kinetics. Briefly, streptavidin is covalently coupled to azlactone beads. Biotinylated C8 acylated human ghrelin (1-28) is subsequently bound to these streptavidin beads. The binding of free anti-ghrelin Fab to the beads is detected on the instrument.
To measure Kds, individual tubes containing a constant concentration of 20-100 pM of Fab with decreasing serially diluted C8 acylated human ghrelin (1-28) are incubated for 18 h at 20° C. in 0.1% BSA, PBS. […] For example, clone 4a1 is used at a constant concentration of 20 pM and individual tubes are incubated with 0-20 nM of ghrelin. Incubations for other Fabs are set in a similar manner. After incubation, free Fab in each equilibrated sample is determined on the KinExA 3000 instrument according to the manufacturer's instructions. Kd values are determined using the KinExA 3000 software.
In general terms: A kinetic exclusion assay measures how much of one partner remains free in solution.

Experiment [2] has as its target T1, C8 acylated human ghrelin (1-28). In words: BIAcore SPR; Mab amine-coupled to CM5 chip, ghrelin injected, n = 2. On the procedure:
(§1) The affinity (Kd) of humanized C2 anti-ghrelin Mabs is measured using a BIAcore® 2000 instrument containing a CM5 sensor chip. The BIAcore® utilizes the optical properties of surface plasmon resonance to detect alterations in protein concentration of interacting molecules within a dextran biosensor matrix. Except where noted, all reagents and materials are purchased from BIAcore® AB (Uppsala, Sweden). All measurements are performed at about 25° C. All samples containing either rat or human ghrelin (full length, C8- or C10-acylated, or desacylated) and anti-ghrelin Fab or Mab are diluted in HBS-EP buffer (150 mM sodium chloride, 3 mM EDTA, 0.005% (w/v) surfactant P-20, and 10 mM HEPES, pH 7.4). A capture antibody, goat anti-mouse kappa (Southern Biotechnology, Inc), or goat anti-mouse Fc gamma (Jackson ImmunoResearch), is immobilized onto flow cells using amine-coupling chemistry. Flow cells (1-4) are activated for 7 minutes with a 1:1 mixture of 0.1 M N-hydroxysuccinimide and 0.1 M 3-(N,N-dimethylamino)propyl-N-ethylcarbodiimide at a flow rate of 10 μl/min. The capture antibody, for example goat anti-mouse kappa, is diluted to 30 μg/mL in 10 mM sodium acetate, pH 4.5, and manually injected over all four flow cells at a flow rate of 10 μL/min. The surface density is monitored, and additional capture antibody is injected as needed to each individual cell until all flow cells reach a surface density of 4500-5000 response units (RU). Surfaces are blocked with a seven minute injection of 1 M ethanolamine-HCl, pH 8.5(10 μL/min). To ensure complete removal of any noncovalently bound capture antibody, 15 μL of 10 mM glycine, pH 1.5, are injected twice. Running buffer for kinetic experiments is HBS-EP buffer (150 mM sodium chloride, 3 mM EDTA, 0.005% (w/v) surfactant P-20, and 10 mM HEPES, pH 7.4). For C2_{—}4A1, 5A1, and 7A1, the antibody is directly coupled to a CM5 chip using the amine-coupling chemistry described above, aiming for a surface density of between 800-1000 RU.
(§2) Collection of kinetic binding data is performed at maximum flow rate (100 μL/min) and a low surface density to minimize mass transport effects.

The target in experiment [3] is T2, Rat C8 ghrelin (28 amino acids, C8-acylated) (rat, UniProt Q9QYH7 24-51, C8-acylated (n-octanoyl; octanoylated at Ser3 as told for rat ghrelin in paragraph 40)).
T2 construct: mature; the assay used the 28-residue peptide; also called C8-acylated rat ghrelin
T2 peptide (looked up): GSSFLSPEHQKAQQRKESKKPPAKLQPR
The description is as above. On the procedure:
as §1, §2

The target of experiment [4] is T1, C8 acylated human ghrelin (1-28). In words: KinExA solution equilibrium; C8 ghrelin coupled to azlactone beads, n-curve analysis, n = 2. On the procedure:
(§3) Briefly, 10 μg human C8 acylated ghrelin (1-28) is covalently coupled to 50 mg azlactone beads (Sapidyne). […] For example, anti-ghrelin C2 murine Fab is used at a constant concentration of either 60, 600, or 6000 pM, and individual tubes are incubated with 0-60, 0-100, or 0-1000 nM of ghrelin, respectively. After the incubation, free Fab or Mab in each equilibrated sample is determined on the KinExA 3000 instrument according to the manufacturer's instructions. Kd values are assessed using the KinEkA 3000 n-curve analysis software.

Experiment [5] addresses T2, Rat C8 ghrelin (28 amino acids, …). In words: BIAcore SPR; Mab captured by goat anti-mouse kappa or anti-mouse Fc gamma, ghrelin injected, n = 7. The method, then: as §1, with “RU. […]” for “RU.”
A general note: Surface plasmon resonance follows binding to a sensor surface in real time, without labels.

The target of experiment [6] is T3, Human C10 ghrelin (1-28) (human, n-decanoyl group on Ser3 (C10-acylated)).
T3 construct: also called decanoyl ghrelin (1-28)
In words: BIAcore SPR; Mab captured by goat anti-mouse kappa or anti-mouse Fc gamma, ghrelin injected, n = 6. The method, then: as §1, with “RU. […]” for “RU.”

For experiment [7], the target named is T1, C8 acylated human ghrelin (1-28). The experiment can be described thus: BIAcore SPR; Mab captured by goat anti-mouse kappa or anti-mouse Fc gamma, ghrelin injected, n = 11. The method, then: as §1, with “RU. […]” for “RU.”
In experiment [8] the target is T2, Rat C8 ghrelin (28 amino acids, …). In words: BIAcore SPR; Fab captured by goat anti-mouse kappa, ghrelin injected, n = 5. On the procedure: as §1, with “RU. […]” for “RU.”
The target of experiment [9] is T1, C8 acylated human ghrelin (1-28). The experiment can be described thus: BIAcore SPR; Fab captured by goat anti-mouse kappa, ghrelin injected, n = 8. On the procedure:
as §1, with “RU. […]” for “RU.”

Experiment [10] addresses T3, Human C10 ghrelin (1-28). In words: BIAcore SPR; Fab captured by goat anti-mouse kappa, ghrelin injected, n = 3. On the procedure:
as §1, with “RU. […]” for “RU.”

The target of experiment [11] is T1, C8 acylated human ghrelin (1-28). The experiment can be described thus: KinExA solution equilibrium; C8 ghrelin coupled to azlactone beads, n-curve analysis, n = 3. The method, then:
as §3

B1: Humanized, affinity matured C2 anti-ghrelin Fab 7b2 (Fab, V domains shown)
VH: QVQLVQSGAEVKKPGASVKVSCKATGYIFTGYWIEWVRQAPGQGLEWMGDILPGSGSPNYNEKFKGRVTMTTDTSTSTAYMELRSLRSDDTAVYYCARYPIFRLRTERIAEWGQGTLVTVSS
VL: DIVMTQSPDSLAVSLGERATINCRASKSVSLLGYSYMHWYQQKPGQPPKLLIYFASNLESGVPDRFSGSGSGTDFTLTISSLQAEDVAVYYCQHSIEEPYTFGQGTKLEIK
notes: Fab; The constant domains are not described
As to B1, in [1], the Kd worked out at 0.0253 nM.

B2: Mab C2_5A1 (humanized, affinity matured VH/VL (Fab C2-5a1 sequences) with rat Fc chimeric C2 anti-ghrelin antibody) (antibody, V domains shown)
VH: B1 VH
VL: B1 VL with L32S
notes: Humanized VH/VL with rat Fc; also called C2-5a1 antibody
In experiment [2], B2 returned a Kd of 0.013 nM, an off-rate constant (koff) of 0.00012 s⁻¹ and a kon of 8.6e+06 M⁻¹ s⁻¹. In experiment [3], the Kd amounted to 0.02 nM, the off-rate (koff) amounted to 0.00012 s⁻¹ and the association rate constant (kon) came out at 6.6e+06 M⁻¹ s⁻¹.

B3: Humanized, affinity matured C2 anti-ghrelin Fab 5a1 (Fab, V domains shown)
VH: B1 VH
VL: B1 VL with L32S
notes: Fab; The constant domains are not described for this clone; also called Fab C2-5a1
In [1], B3 had an equilibrium dissociation constant (Kd) of 0.001 nM.

B4: Humanized, affinity matured C2 anti-ghrelin Fab 7a1 (Fab, V domains shown)
VH: B1 VH with L104P, E111Y
VL: B1 VL with I96V
notes: Fab; The constant domains are not described for this clone
B4 showed a Kd in experiment [1] of 0.0042 nM. Against the preceding molecule, the Kd is about 4.2-fold higher.

B5: Mab C2_7A1 (human VH/VL with rat Fc chimera) (antibody, V domains shown)
VH: B1 VH with L104P, E111Y
VL: B1 VL with I96V
notes: Humanized VH/VL with rat Fc; The Mab is tied to the Fab 7a1 variable regions by its clone name only
In [2], B5 gave a dissociation constant (Kd) of 0.012 nM, a koff of 0.00013 s⁻¹ and a kon of 1e+07 M⁻¹ s⁻¹.

B6: C2 chimeric Fab (heavy and light chain variable regions of C2 murine Fab 1111 fused to human CH1 and CL domains) (Fab, V domains shown)
VH: EIQLQQSGAELMKPGASVKLSCKATGYIFTGYWIEWVKQRPGHGLEWIGEILPGSGSTNYNEKFKGKATFTADTSSNTANMQLSSLTTEDSAIYYCARYPQFRLRRERIAYWGQGTLVTVSV
VL: DLVLTQSPASLAVSLGQRATISCRASKSVSTSGYSYMHWYQQKPGQPPKLLIYLASNLESGVPARFSGSGSGTDFTLNIHPVEEEDAATYYCQHSRELPYTFGAGTKLELKR
As to B6, the Kd in experiment [1] is 1.1 nM.

B7: Mab C2 (full murine sequence, i.e., Fab 1111 VH/VL and murine Fc) (antibody, V domains shown)
VH: B6 VH
VL: B6 VL
notes: Full-length murine antibody with a kappa light chain (it was captured with anti-mouse kappa); also called Anti-ghrelin C2 Mab
Consider B7, for which the Kd came out at 1.44 nM in experiment [4], 2.6 nM in experiment [5], 4.1 nM with Human C10 ghrelin (1-28) [6] and 0.779 nM in experiment [7]. In addition, the koff was 0.0018 s⁻¹ in experiment [5], 0.0092 s⁻¹ with Human C10 ghrelin (1-28) [6] and 0.0015 s⁻¹ in experiment [7]. Moreover, the on-rate (kon) in experiment [5] came out at 800000 M⁻¹ s⁻¹; with Human C10 ghrelin (1-28) [6], 1.9e+06 M⁻¹ s⁻¹; in experiment [7], 2.4e+06 M⁻¹ s⁻¹.

B8: Mab C2 (murine VH/VL Fab 1111 sequences with rat Fc chimera) (antibody, V domains shown)
VH: B6 VH
VL: B6 VL
notes: Chimera with rat Fc
On to B8, for which, in [2], the equilibrium dissociation constant (Kd) is 0.363 nM, the dissociation rate constant (koff) turned out to be 0.0028 s⁻¹ and the kon was 7.4e+06 M⁻¹ s⁻¹. Moreover, in experiment [3], the affinity, expressed as Kd, was 0.687 nM; the koff stood at 0.0019 s⁻¹; the kon worked out at 3.3e+06 M⁻¹ s⁻¹.

B9: C2 murine Fab 1111 (Fab, V domains shown)
VH: B6 VH
VL: B6 VL
notes: also called Anti-ghrelin C2 Fab (Fab1111)
As to B9, the Kd is 1.23 nM in experiment [8], 0.953 nM in [9], 4.55 nM in the experiment with Human C10 ghrelin (1-28) [10] and 1.03 nM in experiment [11]. Also, the koff in [8] is 0.0016 s⁻¹; in experiment [9] it was 0.0016 s⁻¹; with Human C10 ghrelin (1-28) [10] it was 0.0088 s⁻¹. Further, the kon in experiment [8] stood at 1.4e+06 M⁻¹ s⁻¹; in experiment [9], 1.7e+06 M⁻¹ s⁻¹; in the experiment with Human C10 ghrelin (1-28) [10], 2.1e+06 M⁻¹ s⁻¹.
